Laboratory results: article PMC5995542

Tests used:
[1] = biological target: E. coli 70S ribosome termination complex labelled with Cy3 at protein L11 (PreHC, PostHC* or PostHC) (E. coli) (UniProt P0A7J7); test: FRET or BRET; smFRET (TIRF) between factor-Cy5 (10 nM, in solution) and L11-Cy3 on PreHC or PostHC (peptide released by puromycin or by the factor) immobilised by mRNA-biotin:neutravidin; no RF3; imaging buffer pH 7.5, 15 mM MgCl2, 22°C; koff from residence times, limited by photobleaching (0.07–0.19 s^-1)
[2] = biological target: E. coli 70S ribosome termination complex labelled with Cy3 at protein L11 (PreHC, PostHC* or PostHC) (E. coli) (UniProt P0A7J7); test: FRET or BRET; smFRET (TIRF), RF1-Cy5 (10 nM) on immobilised L11-Cy3 PreHC converted in situ to PostHC by RF1, with excess unlabelled RF3 (1 µM) and GTP (1 mM); 22°C
[3] = biological target: E. coli 70S ribosome termination complex labelled with Cy3 at protein L11 (PreHC, PostHC* or PostHC) (E. coli) (UniProt P0A7J7); test: FRET or BRET; smFRET (TIRF), RF1(GAQ)-Cy5 (10 nM) on immobilised PreHC labelled at L11-Cy3, with excess unlabelled RF3 (1 µM) and GTP (1 mM); 22°C
[4] = biological target: E. coli 70S ribosome termination complex labelled with Cy3 at protein L11 (PreHC, PostHC* or PostHC) (E. coli) (UniProt P0A7J7); test: FRET or BRET; smFRET (TIRF), RF1(GAQ)-Cy5 (10 nM) on immobilised PostHC* (puromycin) labelled at L11-Cy3, with excess unlabelled RF3 (1 µM) and GTP (1 mM); 22°C
[5] = biological target: PostHC, post-hydrolysis termination complex: E. coli 70S ribosome labelled with Cy3 at protein L11, deacylated tRNAfMet in the P site and the stop codon UAA in the A site (E. coli) (UniProt P0A7J7); test: FRET or BRET; single-molecule FRET by TIRF, residence time: RF3-Cy5 (10 nM) with GDPNP (1 mM) on L11-Cy3 PostHC immobilised through mRNA-biotin:neutravidin; with saturating unlabelled RF1 (1 µM)
[6] = biological target: PostHC, post-hydrolysis termination complex: E. coli 70S ribosome labelled with Cy3 at protein L11, deacylated tRNAfMet in the P site and the stop codon UAA in the A site (E. coli) (UniProt P0A7J7); test: FRET or BRET; single-molecule FRET by TIRF, residence time: RF2-Cy5 (10 nM) on L11-Cy3 PostHC (peptide released by RF2) immobilised through mRNA-biotin:neutravidin; no RF3; imaging buffer pH 7.5, 15 mM MgCl2, 22°C

## RF1-Cy5 (release factor RF1, single-cysteine variant RF1(S167C) labelled with Cy5) (from UniProt P0A7I0 1-360) (natural protein)
[1]
  koff: < 0.2 s⁻¹
[2]
  koff: 1.2 s⁻¹

## RF1(GAQ)-Cy5 (catalytically impaired RF1(G234A), Cy5-labelled) (from UniProt P0A7I0 1-360) (natural protein)
[1]
  koff: < 0.2 s⁻¹
[3]
  koff: < 0.3 s⁻¹
[4]
  koff: 1.3 s⁻¹
  koff of the small fraction (8%) of complexes that release RF1(GAQ) slowly: 0.12 s⁻¹

## RF3-Cy5, single-cysteine release factor RF3(L233C) labelled with Cy5 (from UniProt P0A7I4 1-529) (natural protein)
[5]
  koff: 2.5 s⁻¹

## RF2-Cy5, single-cysteine release factor RF2(C273) labelled with Cy5 (from UniProt P07012 1-365) (natural protein)
[6]
  koff: 0.84 s⁻¹
